In patent publication US20160340421A1:
Each block holds one substance with its values, some of them ahead of it.

Experiments:
hGDF11 homodimer (human) [1] = target: hGDF11 homodimer (human) (UniProt O95390); assay: SPR, antibody captured, buffer without BSA
[2] = target: Human GDF8 homodimer (mature human Growth and Differentiation Factor-8) (human) (UniProt O14793); assay: SPR, antibody captured, buffer without BSA
hGDF11 homodimer (human) [3] = target: hGDF11 homodimer (human) (UniProt O95390); assay: SPR, antibody captured, 25 nM antigen
[4] = target: Human GDF8 homodimer (mature human Growth and Differentiation Factor-8) (human) (UniProt O14793); assay: SPR, antibody captured, 25 nM antigen
hGDF11 homodimer (human) [5] = target: hGDF11 homodimer (human) (UniProt O95390); assay: SPR Biacore T100, captured on anti-hFc, 37°C
[6] = target: Human GDF8 homodimer (mature human Growth and Differentiation Factor-8) (human) (UniProt O14793); assay: SPR Biacore T100, captured on anti-hFc, 37°C
hGDF11 homodimer (human) [7] = target: hGDF11 homodimer (human) (UniProt O95390); assay: SPR Biacore T100, captured on anti-hFc, 25°C
[8] = target: Human GDF8 homodimer (mature human Growth and Differentiation Factor-8) (human) (UniProt O14793); assay: SPR Biacore T100, captured on anti-hFc, 25°C
[9] = target: Human GDF8 homodimer (mature human Growth and Differentiation Factor-8) (human) (UniProt O14793); assay: Luminex: hGDF8 beads with 1.25 µg/ml antibody, then Activin RIIB-mFc; MFI of bound Activin RIIB-mFc (n=3)
hGDF11 homodimer (human) [10] = target: hGDF11 homodimer (human) (UniProt O95390); assay: cell-based or functional assay
[11] = target: Human GDF8 homodimer (mature human Growth and Differentiation Factor-8) (human) (UniProt O14793); assay: cell-based or functional assay
[12] = target: GDF8/TGFβ[48-72] chimera (T48): GDF8.1-47.TGFβ1.49-76.GDF8.73-109 (human GDF8 with human TGFβ-1 sequence); assay: cell-based or functional assay
Target sequence (chain, as listed by the source mutant limits assumed): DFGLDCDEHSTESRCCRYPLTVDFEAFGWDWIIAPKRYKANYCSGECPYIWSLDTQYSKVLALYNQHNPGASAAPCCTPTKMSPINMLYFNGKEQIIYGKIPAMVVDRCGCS

Sequence of Human GDF8 homodimer (mature human Growth and Differentiation Factor-8) (human) (O14793 267-375): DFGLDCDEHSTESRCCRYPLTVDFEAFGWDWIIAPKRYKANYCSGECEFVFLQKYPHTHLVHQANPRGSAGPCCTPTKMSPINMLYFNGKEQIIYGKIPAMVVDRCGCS
Sequence of hGDF11 homodimer (human) (O95390 299-407 limits assumed): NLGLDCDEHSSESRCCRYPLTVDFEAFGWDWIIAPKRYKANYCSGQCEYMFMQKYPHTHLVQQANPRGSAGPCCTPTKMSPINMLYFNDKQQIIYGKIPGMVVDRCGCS

- Kd (hGDF11 homodimer (human) [1]): 0.001 nM
- T1/2 (hGDF11 homodimer (human) [1]): 1.75 h
- Kd [2]: 0.002 nM
- T1/2 [2]: 21.7 h
- Kd (hGDF11 homodimer (human) [3]): 0.08 nM
- T1/2 (hGDF11 homodimer (human) [3]): 2.27 h
- Kd [4]: 0.05 nM
- T1/2 [4]: 3.18 h
- Kd (hGDF11 homodimer (human) [5]): 0.0274 nM
- T1/2 (hGDF11 homodimer (human) [5]): 0.933 h
- Kd [6]: 0.0244 nM
- T1/2 [6]: 1.17 h
- Kd (hGDF11 homodimer (human) [7]): 0.0146 nM
- T1/2 (hGDF11 homodimer (human) [7]): 3.68 h
- Kd [8]: 0.0103 nM
- T1/2 [8]: 4.55 h
- MFI [9]: 58
- IC50, GDF11-inducible luciferase, A204/Smad2 cells, 0.8 nM GDF11 (hGDF11 homodimer (human) [10]): 0.94 nM
- IC50, luciferase bioassay, 0.4 nM GDF11 (hGDF11 homodimer (human) [10]): 0.255 nM
- IC50, luciferase bioassay, 0.8 nM GDF11 (hGDF11 homodimer (human) [10]): 0.459 nM
- IC50, GDF8-inducible luciferase, A204/Smad2 cells, 0.8 nM GDF8 [11]: 0.62 nM
- IC50, luciferase bioassay, 0.5 nM GDF8 [11]: 0.172 nM
- IC50, luciferase bioassay, 1 nM GDF8 [11]: 0.398 nM
- approximate IC50, luciferase bioassay with GDF8/TGFβ[48-72] conditioned medium [12]: 0.402 nM
Substance: Control I: human anti-GDF8 antibody with the heavy and light chain variable regions of Myo29

- MFI [9]: 4560
Substance: Negative Control (Table 11)
